From publication PMC3089636

Target: T1, Fur (ferric uptake regulator) (Salmonella enterica (strain for cloning not stated; SL1344/SV5015 used in the paper)) (UniProt A0A0H3NJ13)
T1 sequence: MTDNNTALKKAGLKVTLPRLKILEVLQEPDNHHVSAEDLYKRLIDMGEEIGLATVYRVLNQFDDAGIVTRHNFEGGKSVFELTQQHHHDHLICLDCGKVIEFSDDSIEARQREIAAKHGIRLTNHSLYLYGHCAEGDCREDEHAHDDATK
Assay: EMSA
Conditions: EMSA: 10 mM Bis-Tris/borate pH 7.5, 5% glycerol, 1 mM MgCl2, 40 mM KCl, 100 ug/ml BSA, 0.2 mg/ml salmon sperm DNA, 100 uM MnCl2, 20 nM probe, 10 min 37 C …

| Substance | binding | Kd [nM] |
| --- | --- | --- |
| AGTTATCTGCGGCAGGACGCTGATGACTATTACTTACAAAGGTTACATTTTCCATATTATCCCTTTGTTGATGTTATTTTAATGTTCCTTACTGGTATCCTACTGAAAAAATCTGAGTTGTAAATGCTCTTTATTAGCGTGTGTTGGCAATGGTCTGATTGTTACACCAAAAGAACCCAAATTTGGGTAATTTATCTACAGTAGTTTAAGCCCCAATGGGGATGATGGTTCTTTTAATATGTGTTGAGACGCATTATACA (double strand) [FrgB] | no binding | – |
| FrgA (PhilD) | – | 4.5 |
| AGTTATCTGCGGCAGGACGCTGATGACTATTACTTACAAAGGTTACATTTTCCATATTATCCCTTTGTTGATGTTATTTTAATGTTCCTTACTGGTATCCTACTGA (double strand) [FrgC] | no binding | – |
